Measured values taken from patent US20020102234A1.

Molecular target: human IL-1R1 (IL-1 receptor type I), full length, expressed in transfected Jurkat E6.1 cells (human) (UniProt P14778)
Assay: cell-based or functional assay

Sequence of UniProt P14778 (P14778 18-569): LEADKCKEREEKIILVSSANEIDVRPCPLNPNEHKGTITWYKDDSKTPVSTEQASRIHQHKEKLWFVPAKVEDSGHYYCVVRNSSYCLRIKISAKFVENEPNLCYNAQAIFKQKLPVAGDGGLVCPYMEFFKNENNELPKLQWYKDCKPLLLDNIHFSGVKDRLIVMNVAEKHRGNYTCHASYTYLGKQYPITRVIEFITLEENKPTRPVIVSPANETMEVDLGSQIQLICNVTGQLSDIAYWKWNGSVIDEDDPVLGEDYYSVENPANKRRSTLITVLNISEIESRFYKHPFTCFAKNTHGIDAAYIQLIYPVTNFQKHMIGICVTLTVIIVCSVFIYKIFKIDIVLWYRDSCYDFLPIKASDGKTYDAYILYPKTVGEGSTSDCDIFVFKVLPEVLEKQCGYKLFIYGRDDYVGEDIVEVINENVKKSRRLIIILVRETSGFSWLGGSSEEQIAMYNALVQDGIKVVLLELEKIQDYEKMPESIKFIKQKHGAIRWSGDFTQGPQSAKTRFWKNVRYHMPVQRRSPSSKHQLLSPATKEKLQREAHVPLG

excess over IL-1α giving 50% inhibition of the NFκB reporter response (fold excess over IL-1α): 1000
Substance: recombinant human IL-1RA (IL-1 receptor antagonist) (from UniProt P18510 26-177) (ligand)
